Legend:
Assay in all cases: cell-based or functional assay
[1] = molecular target: HIV-1 92TH021 envelope glycoprotein (Env) on pseudovirus (HIV-1)
[2] = molecular target: HIV-1 92UG024 envelope glycoprotein (Env) on pseudovirus (HIV-1)
[3] = molecular target: HIV-1 Env of isolate MGRM-AE-004 (HIV-1)
[4] = molecular target: HIV-1 Env of isolate MGRM-AE-005 (HIV-1)
[5] = molecular target: HIV-1 Env of isolate MGRM-AE-006 (HIV-1)
[6] = molecular target: HIV-1 Env of isolate MGRM-AE-007 (HIV-1)
[7] = molecular target: HIV-1 Env of isolate MGRM-AE-008 (HIV-1)
[8] = molecular target: HIV-1 Env of isolate MGRM-C-009 (pseudovirus) (HIV-1 isolate MGRM-C-009, subtype C)
[9] = molecular target: HIV-1 Env of isolate MGRM-F1-013 (HIV-1)
[10] = molecular target: HIV-1 Env of isolate MGRM-G-001 (HIV-1)
[11] = molecular target: HIV-1 Env of isolate MGRM-G-004 (HIV-1)
[12] = molecular target: HIV-1 Env of isolate MGRM-G-006 (HIV-1)
[13] = molecular target: HIV-1 Env of isolate MGRM-G-009 (HIV-1)
[14] = molecular target: HIV-1 Env of isolate MGRM-G-011 (HIV-1)
[15] = molecular target: HIV-1 Env of isolate MGRM-G-013 (HIV-1)
[16] = molecular target: HIV-1 Env of isolate MGRM-G-014 (HIV-1)
[17] = molecular target: HIV-1 Env of isolate MGRM-G-015 (HIV-1)
[18] = molecular target: HIV-1 Env of isolate MGRM-G-016 (HIV-1)
[19] = molecular target: HIV-1 Env of isolate MGRM-G-017 (HIV-1)
[20] = molecular target: HIV-1 Env of isolate MGRM-G-019 (HIV-1)
[21] = molecular target: HIV-1 Env of isolate MGRM-G-027 (HIV-1)
[22] = molecular target: HIV-1 MGRM-Chronic-B-008 Env (pseudovirus) (HIV-1)
[23] = molecular target: HIV-1 NL43 envelope glycoprotein (Env) on pseudovirus (HIV-1)
[24] = molecular target: aMLV envelope (negative control pseudovirus)
[25] = molecular target: HIV-1 92BR020 envelope glycoprotein (Env) on pseudovirus (HIV-1)
[26] = molecular target: HIV-1 92RW020 envelope glycoprotein (Env) on pseudovirus (HIV-1)

4838_L06 (PGT-121) (antibody) gave an IC50 (ug/ml), neutralizing activity [1] greater than 10 µg/mL, an IC50 (ug/ml), neutralizing activity [2] greater than 10 µg/mL and a neutralization IC50 [3] greater than 50 µg/mL. It also gave a neutralization IC50 [4] greater than 50 µg/mL, a neutralization IC50 [5] greater than 50 µg/mL and a neutralization IC50 [6] greater than 50 µg/mL. For the same substance, the neutralization IC50 [7] was greater than 50 µg/mL, the IC50 (µg/mL) neutralization [8] was greater than 50 µg/mL and the IC50 [9] was 0.083 µg/mL. It also gave an IC50, pseudovirus neutralization [10] of 0.004 µg/mL, an IC50, pseudovirus neutralization [11] of 0.115 µg/mL and an IC50, pseudovirus neutralization [12] greater than 50 µg/mL. It also gave an IC50, pseudovirus neutralization [13] of 0.02 µg/mL, an IC50, pseudovirus neutralization [14] of 3.17 µg/mL and an IC50, pseudovirus neutralization [15] of 3.99 µg/mL. For the same substance, the IC50, pseudovirus neutralization [16] was 0.009 µg/mL, the IC50, pseudovirus neutralization [17] was greater than 50 µg/mL and the IC50, pseudovirus neutralization [18] was greater than 50 µg/mL. The IC50, pseudovirus neutralization [19] was 0.004 µg/mL, the IC50, pseudovirus neutralization [20] was 0.011 µg/mL and the IC50, pseudovirus neutralization [21] was 0.124 µg/mL. It also gave an IC50, pseudovirus neutralization [22] of 0.007 µg/mL, an IC50 (ug/ml), neutralizing activity [23] greater than 10 µg/mL and an IC50, pseudovirus neutralization [24] greater than 50 µg/mL.
Substance 4858_P08 (PGT-123) (antibody) has an IC50 (ug/ml), neutralizing activity [25] of 0.013 µg/mL, an IC50, pseudovirus neutralization [25] of 0.013 µg/mL and an IC80, pseudovirus neutralization [25] of 0.039 µg/mL. It also gave an IC90 (pseudovirus neutralization) [25] of 0.0741 µg/mL, an IC95, pseudovirus neutralization [25] of 0.134 µg/mL and an IC50 (ug/ml), neutralizing activity [26] of 0.0038 µg/mL. The IC50, pseudovirus neutralization [26] was 0.0038 µg/mL, the IC80, pseudovirus neutralization [26] was 0.0106 µg/mL and the IC90 (pseudovirus neutralization) [26] was 0.0194 µg/mL. The IC95, pseudovirus neutralization [26] was 0.0343 µg/mL, the IC50 (ug/ml), neutralizing activity [1] was greater than 10 µg/mL and the IC50, pseudovirus neutralization [1] was greater than 10 µg/mL. The IC80, pseudovirus neutralization [1] was greater than 10 µg/mL, the IC90 (pseudovirus neutralization) [1] was greater than 10 µg/mL and the IC95, pseudovirus neutralization [1] was greater than 10 µg/mL. For the same substance, the IC50 (ug/ml), neutralizing activity [2] was greater than 10 µg/mL, the IC50, pseudovirus neutralization [2] was greater than 10 µg/mL and the IC80, pseudovirus neutralization [2] was greater than 10 µg/mL. For the same substance, the IC90 (pseudovirus neutralization) [2] was greater than 10 µg/mL, the IC95, pseudovirus neutralization [2] was greater than 10 µg/mL and the neutralization IC50 [3] was greater than 50 µg/mL. It also gave a neutralization IC50 [4] greater than 50 µg/mL, a neutralization IC50 [5] greater than 50 µg/mL and a neutralization IC50 [6] greater than 50 µg/mL. For the same substance, the neutralization IC50 [7] was greater than 50 µg/mL, the IC50 (µg/mL) neutralization [8] was greater than 50 µg/mL and the IC50 [9] was 0.08 µg/mL. For the same substance, the IC50, pseudovirus neutralization [10] was 0.009 µg/mL, the IC50, pseudovirus neutralization [11] was 0.181 µg/mL and the IC50, pseudovirus neutralization [12] was greater than 50 µg/mL. The IC50, pseudovirus neutralization [13] was 33.5 µg/mL, the IC50, pseudovirus neutralization [14] was 14.9 µg/mL and the IC50, pseudovirus neutralization [15] was 3.97 µg/mL. The IC50, pseudovirus neutralization [16] was 0.005 µg/mL, the IC50, pseudovirus neutralization [17] was greater than 50 µg/mL and the IC50, pseudovirus neutralization [18] was greater than 50 µg/mL. The IC50, pseudovirus neutralization [19] was 0.026 µg/mL, the IC50, pseudovirus neutralization [20] was 0.008 µg/mL and the IC50, pseudovirus neutralization [21] was 0.182 µg/mL. For the same substance, the IC50, pseudovirus neutralization [22] was 0.01 µg/mL, the IC50 (ug/ml), neutralizing activity [23] was greater than 10 µg/mL and the IC50, pseudovirus neutralization [23] was greater than 10 µg/mL. For the same substance, the IC80, pseudovirus neutralization [23] was greater than 10 µg/mL, the IC90 (pseudovirus neutralization) [23] was greater than 10 µg/mL and the IC95, pseudovirus neutralization [23] was greater than 10 µg/mL. The IC50, pseudovirus neutralization [24] was greater than 50 µg/mL.
5145_B14 (PGT-127) (antibody) showed a neutralization IC50 [3] greater than 50 µg/mL, a neutralization IC50 [4] greater than 50 µg/mL and a neutralization IC50 [5] greater than 50 µg/mL. For the same substance, the neutralization IC50 [6] was greater than 50 µg/mL, the neutralization IC50 [7] was greater than 50 µg/mL and the IC50 (µg/mL) neutralization [8] was greater than 50 µg/mL. The IC50 [9] was greater than 50 µg/mL, the IC50, pseudovirus neutralization [10] was 0.113 µg/mL and the IC50, pseudovirus neutralization [11] was greater than 50 µg/mL. It also gave an IC50, pseudovirus neutralization [12] greater than 50 µg/mL, an IC50, pseudovirus neutralization [13] greater than 50 µg/mL and an IC50, pseudovirus neutralization [14] greater than 50 µg/mL. The IC50, pseudovirus neutralization [15] was 7.7 µg/mL, the IC50, pseudovirus neutralization [16] was 0.009 µg/mL and the IC50, pseudovirus neutralization [17] was greater than 50 µg/mL. For the same substance, the IC50, pseudovirus neutralization [18] was greater than 50 µg/mL, the IC50, pseudovirus neutralization [19] was greater than 50 µg/mL and the IC50, pseudovirus neutralization [20] was 0.429 µg/mL. The IC50, pseudovirus neutralization [21] was greater than 50 µg/mL, the IC50, pseudovirus neutralization [22] was 21.5 µg/mL and the IC50, pseudovirus neutralization [24] was greater than 50 µg/mL.

Source: patent US20200024330A1
